# Paper PMC12147029, “Rare SNP in the HELB gene interferes with RPA interaction and cellular function of HELB”
# B1: 3'-FAM-T16 (ssDNA)
# DNA: TTTTTTTTTTTTTTTT
# How the values were obtained:
# [1] = biological target: HELB D506G (Homo sapiens, UniProt Q8NG08 1-1087, D506G); test: fluorescence anisotropy; 10 mM Mg(OAc)2, no nucleotide; 25 mM HEPES pH 7.5, 10 mM KOAc, 10 mM Mg(OAc)2, 0.1 mM EDTA, 2 mM beta-mercaptoethanol, 0.1 mg/ml BSA, 1 nM DNA, 30 min, room temperature; settings: protein: recombinant; tags: none (His-SUMO cleaved by Ulp1); label: 3'-6-carboxyfluorescein; single strand
# Sequence of HELB D506G (Q8NG08 whole entry D506G): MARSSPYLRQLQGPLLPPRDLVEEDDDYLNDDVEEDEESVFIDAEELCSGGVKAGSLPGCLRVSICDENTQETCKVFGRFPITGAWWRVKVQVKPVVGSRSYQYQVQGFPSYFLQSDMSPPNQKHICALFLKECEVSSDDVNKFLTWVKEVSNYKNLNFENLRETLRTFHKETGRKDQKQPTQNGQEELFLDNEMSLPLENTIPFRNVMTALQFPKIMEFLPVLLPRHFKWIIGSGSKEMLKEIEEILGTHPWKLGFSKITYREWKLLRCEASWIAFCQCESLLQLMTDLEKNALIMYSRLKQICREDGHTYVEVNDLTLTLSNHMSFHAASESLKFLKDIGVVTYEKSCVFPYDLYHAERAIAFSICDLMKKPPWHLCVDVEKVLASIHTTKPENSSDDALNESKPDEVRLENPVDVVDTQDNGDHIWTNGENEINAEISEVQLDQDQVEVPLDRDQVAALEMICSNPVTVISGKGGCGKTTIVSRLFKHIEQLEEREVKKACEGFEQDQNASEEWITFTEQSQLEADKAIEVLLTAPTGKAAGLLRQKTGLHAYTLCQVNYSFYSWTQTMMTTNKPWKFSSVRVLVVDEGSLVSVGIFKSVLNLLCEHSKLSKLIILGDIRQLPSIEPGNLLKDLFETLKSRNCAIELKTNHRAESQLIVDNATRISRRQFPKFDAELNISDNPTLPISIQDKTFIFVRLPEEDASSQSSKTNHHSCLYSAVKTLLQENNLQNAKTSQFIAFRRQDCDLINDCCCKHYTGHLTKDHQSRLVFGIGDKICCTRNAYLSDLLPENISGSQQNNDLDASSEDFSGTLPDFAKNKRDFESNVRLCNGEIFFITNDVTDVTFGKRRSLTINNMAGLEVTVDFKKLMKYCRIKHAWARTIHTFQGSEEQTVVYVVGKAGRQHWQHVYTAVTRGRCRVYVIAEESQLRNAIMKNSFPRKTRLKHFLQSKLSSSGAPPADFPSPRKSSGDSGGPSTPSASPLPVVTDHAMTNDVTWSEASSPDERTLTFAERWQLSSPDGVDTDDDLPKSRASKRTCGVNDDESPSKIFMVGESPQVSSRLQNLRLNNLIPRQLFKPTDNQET
# [2] = biological target: HELB WT (Homo sapiens, UniProt Q8NG08 1-1087); test: as above; settings: protein: recombinant; tags: none (His-SUMO cleaved by Ulp1); label: 3'-6-carboxyfluorescein; single strand
# Sequence of HELB WT (Q8NG08 whole entry): as the sequence (Q8NG08 whole entry D506G) above, with G506D counted along it
binder,measurement,setting,value
B1,Kd,[1],2.2 ± 0.4 nM
same,Kd,[2],3.4 ± 0.2 nM
